# Experimental data reported in paper PMC8092592, “A nanobody toolbox targeting dimeric coiled-coil modules for functionalization of designed protein origami structures” (Proceedings of the National Academy of Sciences of the …, 2021).
# T1: APH2, antiparallel homodimeric coiled coil of the synthetic peptide APHshSN (N-terminus acetylated; C-terminus amidated)
# T1 construct: designed peptide APH (full name APHshSN); also called APH peptide pair; source: synthetic peptide, bought: ProteoGenix
# T1 peptide: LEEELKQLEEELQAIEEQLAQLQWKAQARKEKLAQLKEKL
# T2: antiparallel homodimeric APH coiled-coil (APH2), isolated peptide dimer (synthetic construct (designed peptide …))
# T2 construct: residues named in the text: E4, L8, I15, Q18, Q21, L22, W24, K25, R29; also called APH CC; APH2 peptide; source: synthetic peptide
# T2 chain: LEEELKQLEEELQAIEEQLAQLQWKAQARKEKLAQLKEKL
# B1: nanobody Nb30 (VHH)
# VHH: QVQLQESGGGLVQPGGSLRLSCAASGSIFSDNDMGWYRQPPGKQREWVATITYDHVTWYADSVKGRFAISRDNAKNTVYLQMNDLKPEDTAVYYCNAVPGRRGSWGQGTQVTVSS
# notes: no cleavage of the His6 tag is described; also called Group 10 (Nb30); source: E. coli WK6, periplasmic extract, purified (Ni2+-NTA, SEC)
# B2: nanobody Nb30 (VHH)
# VHH: QVQLQESGGGLVQPGGSLRLSCAASGSIFSDNDMGWYRQPPGKQREWVATITYDHVTWYADSVKGRFAISRDNAKNTVYLQMNDLKPEDTAVYYCNAVPGRRGSWGQGTQVTVSS
# notes: selected by phage display from a llama immunised with TET12SN; construct and tags are in SI Appendix, Materials and Methods; source: E. coli, recombinant, produced and isolated according to standard procedures
# B3: nanobody Nb26 (VHH)
# VHH: QVQLQESGGGLVQAGDSLRLSCAASGRTFSTYPMGWFRQAPGKEREFVAASSSRAYYADSVKGRFTISRNNAKNTVYLQMNSLKPEDTAVYYCVADSSPYYRRYDAAQDYDYWGQGTQVTVSS
# notes: no cleavage of the His6 tag is described; also called Group 1 (Nb26); source: E. coli WK6, periplasmic extract, purified (Ni2+-NTA; some nanobodies also SEC)
# B4: nanobody Nb26 (VHH)
# VHH: QVQLQESGGGLVQAGDSLRLSCAASGRTFSTYPMGWFRQAPGKEREFVAASSSRAYYADSVKGRFTISRNNAKNTVYLQMNSLKPEDTAVYYCVADSSPYYRRYDAAQDYDYWGQGTQVTVSS
# notes: as for B2
# B5: nanobody Nb28 (VHH)
# VHH: QVQLQESGGGLVQPGGSLRLSCAAPGFRLDNYVIGWFRQAPGKEREGVSCISSSAGSTYYADSVKGRFTISRDNAKNTVYLQMNSLKPEDTAVYYCATACYSSYVTYWGQGTQVTVSS
# notes: no cleavage of the His6 tag is described; also called Group 8 (Nb28); source: E. coli WK6, periplasmic extract, purified (Ni2+-NTA; some nanobodies also SEC)
# B6: nanobody Nb28 (VHH)
# VHH: QVQLQESGGGLVQPGGSLRLSCAAPGFRLDNYVIGWFRQAPGKEREGVSCISSSAGSTYYADSVKGRFTISRDNAKNTVYLQMNSLKPEDTAVYYCATACYSSYVTYWGQGTQVTVSS
# notes: as for B2
# B7: nanobody Nb49 (VHH)
# VHH: QVQLQESGGGLVQPGGSLRLSCIASGRTFNPYGMGWFRQVPGKERTFVSGITWIGGTTYYVNSVKGRFTISRDRAKNTVYLQMNSLKPEDTAVYYCAADKDNTGYNYWGQGTQVTVSS
# notes: no cleavage of the His6 tag is described; also called Group 4 (Nb49); source: E. coli WK6, periplasmic extract, purified (Ni2+-NTA; some nanobodies also SEC)
# B8: nanobody Nb49 (VHH)
# VHH: QVQLQESGGGLVQPGGSLRLSCIASGRTFNPYGMGWFRQVPGKERTFVSGITWIGGTTYYVNSVKGRFTISRDRAKNTVYLQMNSLKPEDTAVYYCAADKDNTGYNYWGQGTQVTVSS
# notes: as for B2
# Tests used:
# Conditions in all cases: both partners purified
# [1] = molecular target: T1, APH2, antiparallel homodimeric coiled …; experiment: ITC; nanobody in the syringe titrated into the cell with TET12SN or a tetrahedron variant (2-5 µM), CC peptide dimer (5-10 µM) or a complex preformed by a first titration; MicroCal VP-ITC, 25 °C; 20 mM sodium phosphate pH 7.0, 150 mM NaCl; independent binding sites model (SEDPHAT), errors by Monte-Carlo
# [2] = molecular target: T3, preformed Nb28_2-APH2 complex (llama, N-terminus acetylated; C-terminus amidated); experiment: as above
# T3 construct: peptide APHshSN, as Dm8; Nb28, as Dm3; source: formed in the ITC cell by a first titration of Nb28 into APH2; copies: 2 + 2
# [3] = molecular target: T2, antiparallel homodimeric APH …; experiment: crystal structure; crystals of nanobody-CC dimer complexes, solved by molecular replacement
# [4] = molecular target: T2, antiparallel homodimeric APH …; experiment: ITC; nanobody titrated into the CC peptide dimer, the origami protein or a preformed nanobody-target complex; conditions in SI Appendix
# [5] = molecular target: T4, preformed Nb30_2-APH2 complex (llama, N-terminus acetylated; C-terminus amidated); experiment: ITC; nanobody in the syringe titrated into the cell with TET12SN or a tetrahedron variant (2-5 µM), CC peptide dimer (5-10 µM) or a complex preformed by a first titration; MicroCal VP-ITC, 25 °C; 20 mM sodium phosphate pH 7.0, 150 mM NaCl; independent binding sites model (SEDPHAT), errors by Monte-Carlo
# T4 construct: peptide APHshSN, as Dm8; Nb30, as Dm5; source: formed in the ITC cell by a first titration of Nb30 into APH2; copies: 2 + 2
# [6] = molecular target: T1, APH2, antiparallel homodimeric coiled …; experiment: ITC; titrations at 18, 25 and 32 °C fitted globally (independent binding sites, temperature-independent heat capacity); parameters reported at 25 °C; 20 mM sodium phosphate pH 7.0, 150 mM NaCl
binder,measurement,setting,value
B1,Kd,[1],710 ± 58 nM
same,stoichiometry N,[1],2 nanobody per APH2 dimer (cell:syringe)
same,Kd,[2],55 ± 4.2 nM
same,stoichiometry N,[2],2 nanobody per complex (cell:syringe)
B2,stoichiometry N,[3],2 nanobodies per APH2 dimer (printed 2:2 nanobody:CC peptide)
B3,stoichiometry N,[1],2 nanobody per APH2 dimer (cell:syringe)
B4,Kd,[4],39 nM
same,dH,[4],-28 kcal ⋅ mol^−1
same,stoichiometry N,[3],2 nanobodies per APH2 dimer (printed 2:2 nanobody:CC peptide)
B5,Kd,[5],23 ± 1.7 nM
same,stoichiometry N,[5],2 nanobody per complex (cell:syringe)
same,Kd,[1],140 ± 10 nM
same,stoichiometry N,[1],2 nanobody per APH2 dimer (cell:syringe)
same,Kd,[6],94 ± 7.5 nM
same,stoichiometry N,[6],2 nanobody per APH2 dimer (cell:syringe)
B6,stoichiometry N,[3],2 nanobodies per APH2 dimer (printed 2:2 nanobody:CC peptide)
B7,stoichiometry N,[1],2 nanobody per APH2 dimer (cell:syringe)
B8,Kd,[4],570 nM
same,stoichiometry N,[3],2 nanobodies per APH2 dimer (printed 2:2 nanobody:CC peptide)
